Ends that are not written are not given here.
B1: TN7 isolate 3, phage-displayed LPCDYYGTCLD (peptide)
peptide: LPCDYYGTCLD
notes: Tested as a phage clone; not shown: not specified
B2: TN7 isolate 8, phage-displayed DGCHYYGTCLH (peptide)
peptide: DGCHYYGTCLH
modifications: not fully specified (bridges); cysteine pairing not given here
notes: as for B1
B3: TN7 isolate 1, phage-displayed RPCDYYGTCFD (peptide)
peptide: RPCDYYGTCFD
modifications: not fully specified (bridges); cysteine pairing not given here
notes: as for B1
B4: TN7 isolate 12, phage-displayed FSCWYSLHCHR (peptide)
peptide: FSCWYSLHCHR
modifications: not fully specified (bridges); cysteine pairing not given here
notes: as for B1
B5: TN7 isolate 11, phage-displayed HDCQYYGTCLH (peptide)
peptide: HDCQYYGTCLH
modifications: not fully specified (bridges); cysteine pairing not given here
notes: as for B1
B6: TN7 isolate 2, phage-displayed LSCDYYGTCLR (peptide)
peptide: LSCDYYGTCLR
modifications: not fully specified (bridges); cysteine pairing not given here
notes: as for B1
B7: TN7 isolate 4, phage-displayed DPCSYYGTCLH (peptide)
peptide: DPCSYYGTCLH
modifications: not fully specified (bridges); cysteine pairing not given here
notes: as for B1
B8: TN7 isolate 5, phage-displayed LPCSYYGTCLH (peptide)
peptide: LPCSYYGTCLH
modifications: not fully specified (bridges); cysteine pairing not given here
notes: as for B1
B9: TN7 isolate 9, phage-displayed RSCNYYGTCLH (peptide)
peptide: RSCNYYGTCLH
modifications: not fully specified (bridges); cysteine pairing not given here
notes: as for B1
B10: TN7 isolate 10, phage-displayed RPCNYYGTCLH (peptide)
peptide: RPCNYYGTCLH
modifications: not fully specified (bridges); cysteine pairing not given here
notes: as for B1
B11: TN7 isolate 6, phage-displayed FACHYYGTCLH (peptide)
peptide: FACHYYGTCLH
modifications: not fully specified (bridges); cysteine pairing not given here
notes: as for B1
B12: TN7 isolate 7, phage-displayed LACHYYGTCLH (peptide)
peptide: LACHYYGTCLH
modifications: not fully specified (bridges); cysteine pairing not given here
notes: as for B1

Legend:
fibrin = target: T1, fibrin (Homo sapiens, UniProt P02671+P02675+P02679); experiment: dried fibrin plate ELISA of phage isolates; type: binding; conditions: phage isolates from TN7 library; symbols not defined
T1 construct: Thrombin cleavage at the Arg16-Arg17 bond in the Ax chains and at the Arg14-Gly15 bond on the BP chains releases fibrinopeptides A and B; host or cells: fibrinogen solution clotted with thrombin in 96-well plates and dried at 37 C
T1 sequence (P02671 36-629 limits assumed): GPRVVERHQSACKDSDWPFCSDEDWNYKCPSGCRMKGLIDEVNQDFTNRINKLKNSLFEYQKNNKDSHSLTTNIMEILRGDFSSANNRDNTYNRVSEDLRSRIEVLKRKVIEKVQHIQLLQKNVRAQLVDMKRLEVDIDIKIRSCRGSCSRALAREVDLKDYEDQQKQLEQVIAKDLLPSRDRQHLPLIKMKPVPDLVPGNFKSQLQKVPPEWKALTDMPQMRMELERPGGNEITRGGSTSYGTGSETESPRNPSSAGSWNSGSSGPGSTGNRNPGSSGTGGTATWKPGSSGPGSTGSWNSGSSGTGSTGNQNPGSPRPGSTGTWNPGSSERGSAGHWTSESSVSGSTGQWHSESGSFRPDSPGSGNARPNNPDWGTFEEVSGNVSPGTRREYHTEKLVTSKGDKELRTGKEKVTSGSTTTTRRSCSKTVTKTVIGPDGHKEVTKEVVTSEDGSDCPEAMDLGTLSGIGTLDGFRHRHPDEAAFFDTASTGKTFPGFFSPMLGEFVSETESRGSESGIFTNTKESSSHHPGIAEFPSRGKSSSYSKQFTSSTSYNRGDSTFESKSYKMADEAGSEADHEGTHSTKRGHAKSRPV
T1 sequence (P02675 45-491 limits assumed): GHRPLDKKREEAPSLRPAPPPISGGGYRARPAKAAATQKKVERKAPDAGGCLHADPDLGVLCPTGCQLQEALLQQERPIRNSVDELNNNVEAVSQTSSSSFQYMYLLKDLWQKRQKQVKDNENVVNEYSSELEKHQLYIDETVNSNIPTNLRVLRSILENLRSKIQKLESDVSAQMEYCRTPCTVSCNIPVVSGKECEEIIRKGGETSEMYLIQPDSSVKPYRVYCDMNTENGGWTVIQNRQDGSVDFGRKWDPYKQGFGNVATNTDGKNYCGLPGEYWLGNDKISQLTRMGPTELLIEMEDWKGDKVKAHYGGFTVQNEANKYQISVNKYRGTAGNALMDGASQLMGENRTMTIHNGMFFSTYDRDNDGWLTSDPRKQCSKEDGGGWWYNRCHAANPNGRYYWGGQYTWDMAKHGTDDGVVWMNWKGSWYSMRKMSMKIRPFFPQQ
T1 sequence (P02679 27-437 isoform P02679-2 limits assumed): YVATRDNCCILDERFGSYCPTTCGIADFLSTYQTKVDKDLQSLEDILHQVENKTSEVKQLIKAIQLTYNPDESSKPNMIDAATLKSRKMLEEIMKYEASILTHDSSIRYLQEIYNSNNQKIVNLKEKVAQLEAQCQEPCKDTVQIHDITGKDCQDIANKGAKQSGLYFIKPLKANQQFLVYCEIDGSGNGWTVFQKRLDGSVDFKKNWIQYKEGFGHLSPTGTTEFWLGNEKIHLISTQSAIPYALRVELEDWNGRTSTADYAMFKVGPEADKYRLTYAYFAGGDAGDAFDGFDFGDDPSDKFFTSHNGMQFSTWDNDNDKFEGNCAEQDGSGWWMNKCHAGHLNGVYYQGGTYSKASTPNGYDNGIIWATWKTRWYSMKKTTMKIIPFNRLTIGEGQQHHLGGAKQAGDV
Experimental: For screening libraries to isolate binding moieties for fibrin, two fibrin targets, i.e., synthetic fibrin clots and then a soluble fibrin fragment, DD(E), were prepared. To prepare fibrin for screening, dilute fibrin clots were formed in the wells of a 96-well plate, dried down to a thin layer, and then rehydrated prior to library screening. In a typical procedure, a 0.15 mg/ml fibrinogen solution was prepared in TBS buffer (50 mM Tris, 150 mM NaCl, pH 7.4). A solution containing 2 U/ml thrombin, 10 mM CaCl2, and 5 mM ε-aminocaproic acid in TBS was prepared. The fibrinogen solution and thrombin solution were mixed 1:1 in the wells of a 96-well plate, aliquoting 25 μL of each solution in each well (total volume=50 μL). The plates were evaporated to dryness by incubating them at 37° C. overnight. Just before a phage library was added to the dried fibrin target, the fibrin wells were washed three times for 10 minutes with phage blocking buffer (TBS containing 2 mM CaCl2, 0.1% Tween-20, and 0.1% human serum albumin (HSA)).
(§1) After five rounds of selection, the eluted phage were propagated and a portion plated to isolate phage plaques arising from individual clones. Ninety such clones were selected randomly, propagated, and tested individually for binding to fibrin in a dried fibrin plate assay. Dried fibrin plates were prepared as described above for the library screening. Phage samples (˜10^9 phage each) were incubated in the dried fibrin plate wells in binding buffer (50 mM Tris, 150 mM NaCl, 2 mM CaCl2, 0.05% Tween-20) containing 0.1% HSA. After 1 hour, the plates were washed 5 times with binding buffer. Anti-M13 antibody conjugated to horseradish peroxidase (Pharmacia) was added at 1/5000 dilution in binding buffer to the wells and incubated with the fibrin for 1 hour. The wells were again washed 5 times with binding buffer and the presence of the antibody/phage/fibrin complex was measured with HRP calorimetric reagents (3,3′,5,5′-tetrarnethylbenzidine (TMB) and H2O2). A high absorbance at 595 nm (due to oxidized TMB) was indicative of a tight phage/fibrin interaction, and phage clones corresponding to those wells were identified as bearing fibrin-binding moieties.
The amino acid sequence data from these phage isolates were sorted according to the degree of similarity and response in the fibrin ELISA assay.

human serum albumin = target: T2, human serum albumin (human, UniProt P02768 25-609); experiment: phage ELISA on immobilised HSA
T2 construct: also called HSA
T2 sequence (P02768 25-609 limits assumed): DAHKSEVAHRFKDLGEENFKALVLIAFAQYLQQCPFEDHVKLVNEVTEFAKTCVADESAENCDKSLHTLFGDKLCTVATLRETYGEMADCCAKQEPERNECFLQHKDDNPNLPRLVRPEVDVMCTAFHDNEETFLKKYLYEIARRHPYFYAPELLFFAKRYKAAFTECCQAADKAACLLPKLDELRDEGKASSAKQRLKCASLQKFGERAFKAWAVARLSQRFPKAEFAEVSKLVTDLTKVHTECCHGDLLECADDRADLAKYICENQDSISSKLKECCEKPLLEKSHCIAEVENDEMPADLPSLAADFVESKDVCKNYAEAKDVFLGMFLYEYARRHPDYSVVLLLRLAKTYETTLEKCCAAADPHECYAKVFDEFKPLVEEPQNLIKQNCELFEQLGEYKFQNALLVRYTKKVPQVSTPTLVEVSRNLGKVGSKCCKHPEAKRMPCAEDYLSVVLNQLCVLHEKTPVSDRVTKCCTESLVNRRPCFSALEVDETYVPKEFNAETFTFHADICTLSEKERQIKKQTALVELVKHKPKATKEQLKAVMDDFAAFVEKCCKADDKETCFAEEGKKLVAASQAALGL
Experimental: as §1, with “(˜10⁹” for “(˜10^9”, “CaCl₂,” for “CaCl2,”, “H₂O₂).” for “H2O2).”
(§2) These fibrin-binding positive clones were subjected to several secondary ELISA assays. These assays followed a similar protocol to that detailed above for the dried fibrin ELISA assay, the only variations being the method of target immobilization and the omission of HSA from binding and wash buffers. A screen against DD(E) acted as a further confirmation of fibrin binding activity. An ELISA screen against fibrinogen (immobilized to the plate by the biotin/streptavidin protocol used for DD(E)) was a check against fibrinogen binding and confirmed that the negative selection procedure detailed in Example 2 had been effective. Finally, ELISAs to assay binding to immobilized HSA (passively bound to the polystyrene plate) and a target-free microtiter plate were controls to eliminate phage that bound promiscuously or nonspecifically.

fibrinogen = target: T3, fibrinogen (UniProt P02671 20-629; P02675 31-491; P02679 27-437, limits assumed); experiment: phage ELISA on immobilised fibrinogen
T3 sequence (looked up) 1: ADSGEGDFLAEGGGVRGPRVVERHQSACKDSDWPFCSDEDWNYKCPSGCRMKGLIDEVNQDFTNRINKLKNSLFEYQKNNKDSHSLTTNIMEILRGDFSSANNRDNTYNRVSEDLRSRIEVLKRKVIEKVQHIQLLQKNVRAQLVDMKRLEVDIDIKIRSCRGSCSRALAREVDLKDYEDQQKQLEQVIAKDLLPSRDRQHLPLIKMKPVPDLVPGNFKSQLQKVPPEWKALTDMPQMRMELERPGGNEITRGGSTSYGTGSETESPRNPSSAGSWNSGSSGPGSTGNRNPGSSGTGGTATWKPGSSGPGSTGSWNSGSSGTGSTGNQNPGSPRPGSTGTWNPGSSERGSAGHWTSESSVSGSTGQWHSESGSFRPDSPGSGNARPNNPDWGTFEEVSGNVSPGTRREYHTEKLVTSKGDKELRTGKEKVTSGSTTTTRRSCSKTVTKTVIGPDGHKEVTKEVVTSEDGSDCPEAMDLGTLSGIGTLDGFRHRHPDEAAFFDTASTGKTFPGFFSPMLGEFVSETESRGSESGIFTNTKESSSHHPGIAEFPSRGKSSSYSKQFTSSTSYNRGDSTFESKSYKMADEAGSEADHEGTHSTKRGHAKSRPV
T3 sequence (looked up) 2: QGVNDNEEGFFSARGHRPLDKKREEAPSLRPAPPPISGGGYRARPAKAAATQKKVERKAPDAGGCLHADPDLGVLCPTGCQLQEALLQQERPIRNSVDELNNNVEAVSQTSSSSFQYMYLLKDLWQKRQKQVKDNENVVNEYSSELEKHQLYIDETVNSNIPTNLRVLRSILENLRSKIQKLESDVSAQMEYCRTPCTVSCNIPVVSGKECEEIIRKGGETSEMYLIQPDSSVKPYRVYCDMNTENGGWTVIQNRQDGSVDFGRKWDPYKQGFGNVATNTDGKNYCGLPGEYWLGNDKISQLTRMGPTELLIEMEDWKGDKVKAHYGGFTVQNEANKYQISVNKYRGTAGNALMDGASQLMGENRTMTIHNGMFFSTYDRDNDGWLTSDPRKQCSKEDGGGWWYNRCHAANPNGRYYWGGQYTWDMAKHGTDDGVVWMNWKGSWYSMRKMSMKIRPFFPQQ
T3 sequence (looked up) 3: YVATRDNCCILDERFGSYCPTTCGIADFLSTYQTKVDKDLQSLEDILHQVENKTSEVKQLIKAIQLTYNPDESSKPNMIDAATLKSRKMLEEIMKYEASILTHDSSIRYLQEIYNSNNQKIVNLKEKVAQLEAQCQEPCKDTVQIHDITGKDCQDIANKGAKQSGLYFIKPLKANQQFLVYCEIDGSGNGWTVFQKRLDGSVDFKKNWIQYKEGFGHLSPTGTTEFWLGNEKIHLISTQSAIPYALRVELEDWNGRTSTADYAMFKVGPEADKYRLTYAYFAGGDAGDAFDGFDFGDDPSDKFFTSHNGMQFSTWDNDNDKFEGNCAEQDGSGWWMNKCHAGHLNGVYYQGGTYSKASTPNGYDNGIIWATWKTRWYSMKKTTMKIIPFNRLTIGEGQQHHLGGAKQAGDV
Experimental: as §1, with “(˜10⁹” for “(˜10^9”, “CaCl₂,” for “CaCl2,”, “H₂O₂).” for “H2O2).”
as §2

Molecule	relative binding (fibrin)	binding result (human serum albumin)	binding result (fibrinogen)
6 (HDCQYYGTCLH; synthetic fibrin binding peptide) [compound 6]	+ + +		
5 (RSCNYYGTCLH; synthetic fibrin binding peptide) [compound 5]	+ + +		
B1		no binding	
B2		no binding	no binding
B3		no binding	no binding
B4		no binding	no binding
B5		no binding	no binding
B6		no binding	no binding
B7		no binding	no binding
B8		no binding	no binding
B9		no binding	no binding
B10		no binding	no binding
B11		no binding	no binding
B12		no binding	no binding
